The text below walks through data of patent publication US20240016931A1 (JIANGSU HENGRUI PHARMACEUTICALS, published 2024).

Broadly, the EC50 is the concentration needed to bring the measured effect to its halfway point. A high value points to weaker potency.

B1: hu179-11 (antibody, human IgG1, kappa, V domains shown)
VH: EVQLVQSGAEVKKPGSSVKVSCKASGYTFSNYLIEWVRQAPGQGLEWIGVIDPGNGDTNYNENFKGRATLTADKSTSTAYIELSSLRSEDTAVYYCAREDNTGTAFDYWGQGTTVTVSS
VL: SIVMTQTPLSLSVTPGQPASISCKASQSVSSDVTWYLQKPGQSPQLLIYYVSNHYTGVPDRFSGSGYGTDFTLKISRVEAEDVGVYYCQQHHRFPLTFGQGTKLEIKR
notes: IgG1-YTE, kappa
B2: hu179-18 (antibody, human IgG1, kappa, V domains shown)
VH: B1 VH with T28A, I81M
VL: B1 VL with Y67S, L73F
notes: IgG1-YTE, kappa
B3: hu179-16 (antibody, human IgG1, kappa)
heavy: EVQLVQSGAEVKKPGSSVKVSCKASGYAFSNYLIEWVRQAPGQGLEWIGVIDPGNGDTNYNENFKGRATLTADKSTSTAYMELSSLRSEDTAVYYCAREDNTGTAFDYWGQGTTVTVSSASTKGPSVFPLAPSSKSTSGGTAALGCLVKDYFPEPVTVSWNSGALTSGVHTFPAVLQSSGLYSLSSVVTVPSSSLGTQTYICNVNHKPSNTKVDKKVEPKSCDKTHTCPPCPAPELLGGPSVFLFPPKPKDTLYITREPEVTCVVVDVSHEDPEVKFNWYVDGVEVHNAKTKPREEQYNSTYRVVSVLTVLHQDWLNGKEYKCKVSNKALPAPIEKTISKAKGQPREPQVYTLPPSRDELTKNQVSLTCLVKGFYPSDIAVEWESNGQPENNYKTTPPVLDSDGSFFLYSKLTVDKSRWQQGNVFSCSVMHEALHNHYTQKSLSLSPGK
light: DIVMTQTPLSLSVTPGQPASISCKASQSVSSDVTWYLQKPGQSPQLLIYYVSNHYTGVPDRFSGSGSGTDFTLKISRVEAEDVGVYYCQQHHRFPLTFGQGTKLEIKRTVAAPSVFIFPPSDEQLKSGTASVVCLLNNFYPREAKVQWKVDNALQSGNSQESVTEQDSKDSTYSLSSTLTLSKADYEKHKVYACEVTHQGLSSPVTKSFNRGEC
notes: IgG1-YTE, kappa
B4: hu179-19 (antibody, human IgG1, kappa, V domains shown)
VH: B1 VH with T28A, I81M
VL: B1 VL
notes: IgG1-YTE, kappa
B5: hu179-17 (antibody, human IgG1, kappa)
heavy: B3 heavy
light: B3 light with D1S
notes: IgG1-YTE, kappa
B6: hu119-20 (antibody, human IgG1, kappa)
heavy: EAQLVQSGAEVKKPGSSVKVSCKASGFTFSTYNMHWVRQAPGQGLEWIGAIYPGNGETSYNQKFKDRATLTVDKSTSTAYMELSSLRSEDTAVYYCAREDDYGEGYFDVWGQGTTVTVSSASTKGPSVFPLAPSSKSTSGGTAALGCLVKDYFPEPVTVSWNSGALTSGVHTFPAVLQSSGLYSLSSVVTVPSSSLGTQTYICNVNHKPSNTKVDKKVEPKSCDKTHTCPPCPAPELLGGPSVFLFPPKPKDTLYITREPEVTCVVVDVSHEDPEVKFNWYVDGVEVHNAKTKPREEQYNSTYRVVSVLTVLHQDWLNGKEYKCKVSNKALPAPIEKTISKAKGQPREPQVYTLPPSRDELTKNQVSLTCLVKGFYPSDIAVEWESNGQPENNYKTTPPVLDSDGSFFLYSKLTVDKSRWQQGNVFSCSVMHEALHNHYTQKSLSLSPGK
light: EIVLTQSPATLSLSPGERATLSCRASESVDNSGLSFMHWYQQKPGQPPRLLLYRASNLGSGIPARFSGSGSGTDFTLTISSLEPEDFAVYYCQQINTDPLTFGQGTKLEIKRTVAAPSVFIFPPSDEQLKSGTASVVCLLNNFYPREAKVQWKVDNALQSGNSQESVTEQDSKDSTYSLSSTLTLSKADYEKHKVYACEVTHQGLSSPVTKSFNRGEC
notes: IgG1-YTE, kappa
B7: hu119-21 (antibody, human IgG1, kappa)
heavy: B6 heavy with A2V, F27G, S77R
light: B6 light
notes: IgG1-YTE, kappa
B8: hu119-19 (antibody, human IgG1, kappa)
heavy: B6 heavy with A2V, F27G
light: B6 light
notes: IgG1-YTE, kappa
B9: hu119-24 (antibody, human IgG1, kappa)
heavy: B6 heavy with A2V, F27G
light: B6 light with E1D
notes: IgG1-YTE, kappa
B10: hu119-27 (antibody, human IgG1, kappa)
heavy: B6 heavy with S77R
light: B6 light with E1D
notes: IgG1-YTE, kappa
B11: hu119-25 (antibody, human IgG1, kappa)
heavy: B6 heavy
light: B6 light with E1D
notes: IgG1-YTE, kappa
B12: hu119-26 (antibody, human IgG1, kappa)
heavy: B6 heavy with A2V, F27G, S77R
light: B6 light with E1D
notes: IgG1-YTE, kappa
B13: hu119-23 (antibody, human IgG1, kappa, V domains shown)
VH: EVQLVQSGAEVKKPGSSVKVSCKASGFTFSTYNMHWVKHAPGQGLEWIGAIYPGNGETSYNQKFKDRATLTVDKSTSTAYMELSSLRSEDTAVYYCAREDDYGEGYFDVWGQGTTVTVSS
VL: DIVLTQSPATLSLSPGERATLSCRASESVDNSGLSFMHWYQQKPGQPPRLLLYRASNLGSGIPARFSGSGSGTDFTLTISSLEPEDFAVYYCQQINTDPLTFGQGTKLEIKR
notes: IgG1-YTE, kappa
B14: hu119-16 (antibody, human IgG1, kappa, V domains shown)
VH: B13 VH with F27G, K38R, H39Q, S77R
VL: B13 VL with D1E, P47A, L52I
notes: IgG1-YTE, kappa
B15: hu119-14 (antibody, human IgG1, kappa, V domains shown)
VH: B13 VH with F27G, K38R, H39Q
VL: B13 VL with D1E, P47A, L52I
notes: IgG1-YTE, kappa
B16: hu119-15 (antibody, human IgG1, kappa, V domains shown)
VH: B13 VH with V2A, K38R, H39Q
VL: B13 VL with D1E, P47A, L52I
notes: IgG1-YTE, kappa
B17: hu119-17 (antibody, human IgG1, kappa, V domains shown)
VH: B13 VH with V2A, K38R, H39Q, S77R
VL: B13 VL with D1E, P47A, L52I
notes: IgG1-YTE, kappa
B18: hu119-22 (antibody, human IgG1, kappa)
heavy: B6 heavy with S77R
light: B6 light
notes: IgG1-YTE, kappa
B19: Ch119 (antibody, human IgG1, kappa, V domains shown)
VH: QAYLQQSGAELVRPGASVKMSCKASGFAFTTYNMHWVKHTPGQGLEWIGAIYPGNGETSYNQKFKDRATLTVDKSSRTAYMQLSSLTSEDSAVYFCAREDDYGEGYFDVWGAGTTVTVSS
VL: DIVLTQSPASLAVSLGQRATISCRASESVDNSGLSFMHWYQQKPGQPPRLLLYRASNLGSGIPARFSGSGSGTDFTLTLNPVETDDVATYYCQQINTDPLTFGAGTKLELKR
notes: murine variable regions on human IgG1-YTE / kappa; also called chimeric antibody corresponding to mab119
B20: Ch3 (antibody, human IgG1, kappa, V domains shown)
VH: EVQLQQSGPVLVKPGASVKMSCKASGYTFTDDYMNWVKQSHGKSLEWIGIISPYNGGTSYNQKFKGKATLTVDKSSSTAYMELNSLTSEDSAVYYCAREDYDYDGYAMDHWGQGTSVTVSS
VL: QIVLSQSPAILSASPGEKVTMTCRASSSVSYMHWYQQKPGSSPKPWIYATSNLASGVPARFSGSGSGTSYSLTISRVEAEDAATYYCQQWSSNRTFGGGTKLEIKR
notes: murine variable regions on human IgG1-YTE / kappa; also called chimeric antibody corresponding to mab3

Changes are numbered by the printed parent chain.
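Note: binding of antibodies to plate-bound TSLP read as absorbance at 450 nm after TMB colour development, EC50 derived from binding curves.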

The assay concerns the target T1, His-tagged human TSLP antigen (huTSLP-his) (human).
T1 construct: Secreted from HEK293E and purified on nickel; whole entry named; also called Human TSLP-his
The assay is described as follows: ELISA, coated huTSLP-his. (In general: An ELISA detects its analyte on a solid surface through an enzyme-linked reagent.)
Protocol: The plate was incubated at 4° C. overnight. After the liquid was discarded, 5% skim milk (skim milk powder from Brightdairy) blocking solution diluted with PBS was added at 200 μL/well, and the plate was incubated in an incubator at 37° C. for 2 h for blocking. After the blocking, the blocking solution was discarded, and the plate was washed 3 times with a PBST buffer (PBS containing 0.1% (v/v) tween-20, pH 7.4). […] After the incubation, the plate was washed 3 times with PBST. […] After the plate was washed 6 times with PBST, a TMB chromogenic substrate (KPL, 52-00-03) was added at 50 μL/well, and the plate was incubated at room temperature for 10-15 min. Then, 1 M H₂SO₄ was added at 50 μL/well to stop the reaction. The absorbance at 450 nm was read with a NOVOStar microplate reader, and the EC₅₀ values for the binding of the TSLP antibodies to TSLP were calculated.
Regarding B1, a half-maximal effect (EC50) was put at 0.137 nM. In other words, the sub-nanomolar range.
The value for B2 was 0.246 nM; that for B3 was 0.229 nM.
With B4, the EC50 is 0.162 nM.
With B5, the midpoint of the response, the EC50, lay at 0.218 nM.
Then B6, with 0.341 nM.
As for B7, a half-maximal response (EC50) required 0.399 nM.
The value for B8 was 0.353 nM; that for B9 was 0.345 nM.
Then B10, with 0.335 nM.
The value for B11 was 0.357 nM; that for B12 was 0.378 nM.
In turn, B13 gave an EC50 of 0.34 nM.
Then B14, with 0.366 nM.
On to B15, for which it took 0.345 nM to reach a half-maximal effect (EC50).
The value for B16 was 0.35 nM; that for B17 was 0.351 nM; that for B18 was 0.351 nM.
Then B19, with 0.851 nM; and B20, with 0.493 nM.
